Data from patent CN117715654A (OXFORD BIOTHERAPEUTICS LTD, dated 2024).

Molecular target: human CD205 (human)
Assay: cell-based or functional assay

B1: 16A5(CD205_A1), DM4-conjugated anti-CD205 (anti-LY75) monoclonal antibody (antibody, V domains shown)
VH: EVQLVESGGGLVKPGGSLRLSCAASGFTYSNAWMSWVRQAPGKGLEWVGRIKSKTDGGTTDYAAPVQGRFTISRDDSKNTLYLQMNSLKTEDTAVYYCTIFGVVSFDYWGQGTLVTVSS
VL: DVQMTQSPSSLSASVGDRVTITCRASQSISDYLSWYQQRPGKAPNLLIYAASNLKTGVPSRFSGSGSGTDFTLTISTLQPEDFATYYCQQSYRSPWTFGQGTKVEIKR
modifications: conjugated to maytansinoid DM4; attachment residues not stated
EC50 of cytotoxicity on Raji cells (Cell-Titer Glo, 96 h): 0.728 nM
EC50 of cytotoxicity on THP1 cells (Cell-Titer Glo, 96 h): 0.0375 nM
